Measured values published in patent US20030175837A1.

B1: chimeric mouse/human IgG1 anti-platelet mAb (7E3) (antibody, INN chains, looked up, V domains shown)
VH: EVQLQQSGTVLARPGASVKMSCEASGYTFTNYWMHWVKQRPGQGLEWIGAIYPGNSDTSYIQKFKGKAKLTAVTSTTSVYMELSSLTNEDSAVYYCTLYDGYYVFAYWGQGTLVTVSA
VL: EIVLTQSPVTLSVTPGDSVSLSCRASRDISNNLHWFQQTSHESPRLLIKYASQSMSGIPSRFSGSGSGTDFTLSINSVETEDFGMYFCQQTNSWPYTFGGGTKLEIK
modifications: chimeric IgG1

Experiments:
[1] = biological target: T1, human lymphotoxin (TNFβ) (human) (UniProt P01374); experiment: cell-based or functional assay
T1 sequence (looked up): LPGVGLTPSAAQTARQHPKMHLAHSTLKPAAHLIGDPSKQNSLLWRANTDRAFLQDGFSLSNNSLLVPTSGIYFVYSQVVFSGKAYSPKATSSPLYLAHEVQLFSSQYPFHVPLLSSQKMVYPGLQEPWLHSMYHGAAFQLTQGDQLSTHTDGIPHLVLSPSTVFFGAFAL

[2] = biological target: human tumor necrosis factor-alpha (hTNFα) (human) (UniProt P01375); experiment: cell-based or functional assay
Chain of human tumor necrosis factor-alpha (hTNFα) (human) (P01375 77-233): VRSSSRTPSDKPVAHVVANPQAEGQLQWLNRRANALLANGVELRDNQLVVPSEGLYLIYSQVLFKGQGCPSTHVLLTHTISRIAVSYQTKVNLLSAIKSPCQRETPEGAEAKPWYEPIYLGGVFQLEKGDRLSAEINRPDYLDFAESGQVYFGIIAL

Row | Molecule | amount needed for the same inhibition of human TNFβ, against p75P-sf2 [1] [fold] | IL-6 secreted by FS-4 fibroblasts, 0.3 ng/ml rhTNF with 4 µg/ml antibody (no antibody: 1.36) [2] [ng/mL] | IL-6 secreted by FS-4 fibroblasts, 1.5 ng/ml rhTNF with 4 µg/ml antibody (no antibody: 2.00) [2] [ng/mL] | IL-6 secreted by FS-4 fibroblasts, 7.5 ng/ml rhTNF with 4 µg/ml antibody (no antibody: 2.56) [2] [ng/mL]
1 | p75-sf2 (complete extracellular domain of p75 fused to the IgG1 heavy chain) (from UniProt P20333 23-257) (Fc fusion) | 3 | – | – | –
2 | p55-sf2 (p55 TNF receptor/IgG1 heavy chain single fusion with truncated light chain JCK) (from UniProt P19438 3-159) (Fc fusion) | 3 | – | – | –
3 | B1 | – | 1.6 | 1.96 | 2.16
